From article PMC2139800 (The Journal of Cell Biology, 1997)

Target: F-actin (unlabeled) (rabbit, UniProt P68135 1-377)
Assay: co-sedimentation

B1: His6–l-afadin-C (aa 1631–1829) (domain or fragment)
chain: DRVRQEEDGRHQEEERVKRDAEEKRRQEEGYYSRLEAERRRQHEEAARRLLEPEEPGLSRPPLPQDYEPPSQSSAPSAPPPPPQRNASYLKTQVLSPDSLFTAKFVAYDDDDEEENYVPAGPNSYSGSAGTTAGTYDAPRDTREKLSRSQDADLPGSSGAPENLTFRERQRLFSQGQDVSDKVKASRKLTELENELNTK
stoichiometry N: ~500 actin molecules per His6–l-afadin-C molecule
